Experimental data as given in paper PMC5962572, “Crystal structure of dihydrodipicolinate reductase (PaDHDPR) from Paenisporosarcina sp. TG-14: structural basis for NADPH preference as a cofactor” (Scientific Reports, 2018).

Assays:
PaDHDPR [1] = target: T1, PaDHDPR (Paenisporosarcina sp. TG-14, UniProt A0A3B6UER2); assay: X-ray crystallography, co-crystals, […] Å (binary) and […] Å (with NADPH); assay type: binding; conditions: 10 mM DPA; substrate site of the C-terminal domain; competitive inhibitor
T1 construct: gene dapB; full length, residues 1-264; pET-28a N-terminal His tag removed by thrombin; expressed in E. coli BL21(DE3); homotetramer
T1 sequence (A0A3B6UER2 2-265): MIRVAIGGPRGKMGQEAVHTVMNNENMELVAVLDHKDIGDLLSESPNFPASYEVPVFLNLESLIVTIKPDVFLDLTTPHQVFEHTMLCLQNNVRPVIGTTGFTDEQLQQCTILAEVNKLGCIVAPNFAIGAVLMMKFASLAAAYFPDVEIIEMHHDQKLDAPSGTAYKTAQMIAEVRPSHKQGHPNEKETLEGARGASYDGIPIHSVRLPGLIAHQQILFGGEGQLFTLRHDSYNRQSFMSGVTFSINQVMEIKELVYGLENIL

PaDHDPR [2] = target: T1, PaDHDPR; assay: isothermal titration calorimetry; assay type: binding; conditions: 50 mM Tris-HCl, 150 mM NaCl, pH 8.0, 25 °C; 80 μM protein, 1 mM ligand
PaDHDPR [3] = target: T2, PaDHDPR (Paenisporosarcina sp. TG-14, UniProt A0A3B6UER2, K37A); assay: isothermal titration calorimetry, one-site model; assay type: binding
T2 construct: gene dapB; full length, residues 1-264; pET-28a N-terminal His tag removed by thrombin; expressed in E. coli BL21(DE3); homotetramer

PaDHDPR [4] = target: T1, PaDHDPR; assay: isothermal titration calorimetry, one-site model; assay type: binding
PaDHDPR [5] = target: T3, PaDHDPR (Paenisporosarcina sp. TG-14, UniProt A0A3B6UER2, H36A); assay: isothermal titration calorimetry, one-site model; assay type: binding; conditions: 50 mM Tris-HCl, 150 mM NaCl, pH 8.0, 25 °C
T3 construct: gene dapB; full length, residues 1-264; pET-28a N-terminal His tag removed by thrombin; expressed in E. coli BL21(DE3); homotetramer

[6] = target: Dihydrodipicolinate reductase from Paenisporosarcina sp. TG-14 (Paenisporosarcina sp. TG-14); assay: AUC; analytical centrifugation of purified PaDHDPR; conditions not told in the main text
purified protein [7] = substrate: O=C(O)C1=N[C@H](C(=O)O)CC=C1; assay: purified protein; assay type: biochemical, Paenisporosarcina sp. TG-14; conditions: ASA (L-aspartate-semialdehyde) concentration varied and printed as the substrate, ASA fully converted to DHDP by PaDHDPS with 1 mM pyruvate, NADPH, 100 mM HEPES pH 7.5, 25 °C
purified protein [8] = substrate: NC(=O)C1=CN([C@@H]2O[C@H](COP(=O)(O)OP(=O)(O)OC[C@H]3O[C@@H](n4cnc5c(N)ncnc54)[C@H](OP(=O)(O)O)[C@@H]3O)[C@@H](O)[C@H]2O)C=CC1; assay: purified protein; assay type: biochemical, Paenisporosarcina sp. TG-14; conditions: NADPH varied, DHDP generated from ASA and pyruvate, 100 mM HEPES pH 7.5, 25 °C, varied: cofactor
purified protein [9] = substrate: NC(=O)C1=CN([C@@H]2O[C@H](COP(=O)(O)OP(=O)(O)OC[C@H]3O[C@@H](n4cnc5c(N)ncnc54)[C@H](O)[C@@H]3O)[C@@H](O)[C@H]2O)C=CC1; assay: purified protein; assay type: biochemical, Paenisporosarcina sp. TG-14; conditions: NADH varied, DHDP generated from ASA and pyruvate, 100 mM HEPES pH 7.5, 25 °C, varied: cofactor

T2 sequence (A0A3B6UER2 entry or part of it K37A): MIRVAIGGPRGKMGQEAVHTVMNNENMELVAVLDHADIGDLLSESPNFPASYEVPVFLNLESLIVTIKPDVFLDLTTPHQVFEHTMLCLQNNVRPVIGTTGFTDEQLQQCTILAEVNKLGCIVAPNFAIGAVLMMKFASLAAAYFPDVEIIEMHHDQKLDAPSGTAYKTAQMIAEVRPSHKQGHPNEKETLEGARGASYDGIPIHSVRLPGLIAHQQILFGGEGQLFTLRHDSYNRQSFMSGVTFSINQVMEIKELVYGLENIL
T3 sequence (A0A3B6UER2 entry or part of it H36A): as the sequence (A0A3B6UER2 entry or part of it K37A) above, with H35A, A36K counted along it

## O=C(O)c1cccc(C(=O)O)n1 [DPA]
PaDHDPR [1]
  X-ray crystallography, co-crystals, 1.8 Å (binary) and 2.1 Å (with NADPH): Electron density corresponding to DPA was observed in the substrate-binding site of the C-terminal domain

## NC(=O)C1=CN([C@@H]2O[C@H](COP(=O)(O)OP(=O)(O)OC[C@H]3O[C@@H](n4cnc5c(N)ncnc54)[C@H](O)[C@@H]3O)[C@@H](O)[C@H]2O)C=CC1 [NADH]
PaDHDPR [2]
  no binding detected: NADH did not bind to PaDHDPR

## NC(=O)C1=CN([C@@H]2O[C@H](COP(=O)(O)OP(=O)(O)OC[C@H]3O[C@@H](n4cnc5c(N)ncnc54)[C@H](OP(=O)(O)O)[C@@H]3O)[C@@H](O)[C@H]2O)C=CC1 [NADPH]
PaDHDPR [3]
  Kd: 236 µM
PaDHDPR [4]
  Kd: 37 µM
PaDHDPR [5]
  no binding detected: H35A mutation induced complete loss of binding affinity

## Dihydrodipicolinate reductase from Paenisporosarcina sp. TG-14 (enzyme)
[6]
  stoichiometry N: 4

B1: PaDHDPR (Paenisporosarcina sp. TG-14) (protein)
chain: MIRVAIGGPRGKMGQEAVHTVMNNENMELVAVLDHKDIGDLLSESPNFPASYEVPVFLNLESLIVTIKPDVFLDLTTPHQVFEHTMLCLQNNVRPVIGTTGFTDEQLQQCTILAEVNKLGCIVAPNFAIGAVLMMKFASLAAAYFPDVEIIEMHHDQKLDAPSGTAYKTAQMIAEVRPSHKQGHPNEKETLEGARGASYDGIPIHSVRLPGLIAHQQILFGGEGQLFTLRHDSYNRQSFMSGVTFSINQVMEIKELVYGLENIL
notes: full length, residues 1-264; pET-28a N-terminal His tag removed by thrombin; expressed in E. coli BL21(DE3); homotetramer
Purified protein [7]
  Km: 12 ± 1.6 µM
  kcat: 52 ± 1.1 s⁻¹
Purified protein [8]
  Km: 22 ± 1.4 µM
  kcat: 55 ± 1.2 s⁻¹
Purified protein [9]
  Km: 43 ± 8.9 µM
  kcat: 7.1 ± 0.1 s⁻¹
